Results reported in US20090305953A1.
Where “and” joins values, the source holds several entries; their conditions need not be identical. Equal values may be shown once. One block for each substance: values may come before it.

Key:
[1] = target: human serum albumin (human) (UniProt P02768); assay: calculated from ITC Ka; 100 µM antibiotic, 6×10^-4 M human serum albumin assumed
[2] = target: human serum albumin (human) (UniProt P02768); assay: calculated from ITC Ka; 165 µM antibiotic, 6×10^-4 M human serum albumin assumed
[3] = target: human α-glycoprotein (human) (UniProt P02763); assay: calculated from ITC Ka; 250 µM antibiotic, 1.5×10^-5 M α-glycoprotein assumed
[4] = target: human serum albumin (human) (UniProt P02768); assay: calculated from ITC Ka; 500 µM antibiotic, 6×10^-4 M human serum albumin assumed
[5] = target: human α-glycoprotein (human) (UniProt P02763); assay: calculated from ITC Ka; 500 µM antibiotic, 1.5×10^-5 M α-glycoprotein assumed
[6] = target: human serum albumin (human) (UniProt P02768); assay: calculated from ITC Ka; 10 µM antibiotic, 6×10^-4 M human serum albumin assumed
[7] = target: human α-glycoprotein (human) (UniProt P02763); assay: calculated from ITC Ka; 165 µM antibiotic, 1.5×10^-5 M α-glycoprotein assumed
[8] = target: human serum albumin (human) (UniProt P02768); assay: calculated from ITC Ka; 250 µM antibiotic, 6×10^-4 M human serum albumin assumed
[9] = target: N,N′-diacetyl-Lys-D-Ala-D-Ala; assay: ITC, no HSA
[10] = target: N,N′-diacetyl-Lys-D-Ala-D-Ala; assay: ITC, tri-peptide injected into dalbavancin, 25 °C, apparent value in the presence of 80.7 µM HSA
[11] = target: N,N′-diacetyl-Lys-D-Ala-D-Ala; assay: ITC, tri-peptide injected into dalbavancin, 25 °C, apparent value in the presence of 34.2 µM HSA
[12] = target: N,N′-diacetyl-Lys-D-Ala-D-Ala; assay: ITC, tri-peptide injected into dalbavancin, 10 °C, no HSA
[13] = target: rat albumin (rat) (UniProt P02770); assay: ITC, single-site model
[14] = target: dog albumin (dog) (UniProt P49822); assay: ITC, single-site model
[15] = target: human α-glycoprotein (human) (UniProt P02763); assay: ITC, single-site model
[16] = target: bovine albumin (bovine) (UniProt P02769); assay: ITC, single-site model
[17] = target: human α-glycoprotein (human) (UniProt P02763); assay: calculated from ITC Ka; 100 µM antibiotic, 1.5×10^-5 M α-glycoprotein assumed
[18] = target: human α-glycoprotein (human) (UniProt P02763); assay: calculated from ITC Ka; 10 µM antibiotic, 1.5×10^-5 M α-glycoprotein assumed
[19] = target: N,N′-diacetyl-Lys-D-Ala-D-Ala; assay: ITC, tri-peptide injected into dalbavancin, 25 °C, apparent value in the presence of 13.6 µM HSA
[20] = target: human serum albumin (human) (UniProt P02768); assay: calculated from ITC Ka; 1 µM antibiotic, 6×10^-4 M human serum albumin assumed
[21] = target: human α-glycoprotein (human) (UniProt P02763); assay: calculated from ITC Ka; 1 µM antibiotic, 1.5×10^-5 M α-glycoprotein assumed

human α-glycoprotein (human), sequence (P02763 19-201): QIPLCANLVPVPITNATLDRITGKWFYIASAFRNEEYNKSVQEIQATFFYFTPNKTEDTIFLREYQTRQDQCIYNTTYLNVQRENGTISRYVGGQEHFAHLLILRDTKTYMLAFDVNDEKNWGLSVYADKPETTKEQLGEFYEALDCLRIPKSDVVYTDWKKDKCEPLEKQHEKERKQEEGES
rat albumin (rat), sequence (P02770 25-608 limits assumed): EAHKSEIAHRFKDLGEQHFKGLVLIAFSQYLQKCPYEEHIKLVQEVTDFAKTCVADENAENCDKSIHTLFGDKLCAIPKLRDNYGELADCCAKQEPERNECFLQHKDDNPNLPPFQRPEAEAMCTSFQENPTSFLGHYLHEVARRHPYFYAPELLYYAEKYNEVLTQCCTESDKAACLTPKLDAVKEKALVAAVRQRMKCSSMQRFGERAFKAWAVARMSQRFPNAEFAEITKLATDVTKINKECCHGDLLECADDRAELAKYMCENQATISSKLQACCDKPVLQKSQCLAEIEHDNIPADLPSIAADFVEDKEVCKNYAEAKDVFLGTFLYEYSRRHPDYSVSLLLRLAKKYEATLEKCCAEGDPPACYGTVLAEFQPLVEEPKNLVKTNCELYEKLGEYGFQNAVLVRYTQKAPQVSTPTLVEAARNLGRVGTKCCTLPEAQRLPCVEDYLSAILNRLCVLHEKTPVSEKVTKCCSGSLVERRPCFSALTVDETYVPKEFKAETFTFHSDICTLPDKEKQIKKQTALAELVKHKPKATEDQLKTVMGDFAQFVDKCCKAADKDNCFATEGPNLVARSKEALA
bovine albumin (bovine), sequence (P02769 25-607 limits assumed): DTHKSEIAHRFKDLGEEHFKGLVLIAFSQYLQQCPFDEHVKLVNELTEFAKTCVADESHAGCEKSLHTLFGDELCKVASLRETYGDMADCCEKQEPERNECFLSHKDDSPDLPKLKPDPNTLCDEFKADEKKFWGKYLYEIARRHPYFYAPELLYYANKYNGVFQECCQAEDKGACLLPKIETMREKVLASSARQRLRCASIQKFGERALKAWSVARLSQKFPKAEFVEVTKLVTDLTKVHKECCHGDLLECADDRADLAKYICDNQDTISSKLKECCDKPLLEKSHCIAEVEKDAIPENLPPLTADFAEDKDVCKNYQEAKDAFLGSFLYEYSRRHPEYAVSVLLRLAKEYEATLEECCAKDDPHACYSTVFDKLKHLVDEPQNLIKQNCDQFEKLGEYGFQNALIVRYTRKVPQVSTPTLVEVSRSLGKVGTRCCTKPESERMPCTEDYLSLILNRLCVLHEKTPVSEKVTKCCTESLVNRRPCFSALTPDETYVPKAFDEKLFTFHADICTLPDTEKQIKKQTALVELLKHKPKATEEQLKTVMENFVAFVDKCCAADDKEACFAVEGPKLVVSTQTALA
dog albumin (dog), sequence (P49822 25-608 limits assumed): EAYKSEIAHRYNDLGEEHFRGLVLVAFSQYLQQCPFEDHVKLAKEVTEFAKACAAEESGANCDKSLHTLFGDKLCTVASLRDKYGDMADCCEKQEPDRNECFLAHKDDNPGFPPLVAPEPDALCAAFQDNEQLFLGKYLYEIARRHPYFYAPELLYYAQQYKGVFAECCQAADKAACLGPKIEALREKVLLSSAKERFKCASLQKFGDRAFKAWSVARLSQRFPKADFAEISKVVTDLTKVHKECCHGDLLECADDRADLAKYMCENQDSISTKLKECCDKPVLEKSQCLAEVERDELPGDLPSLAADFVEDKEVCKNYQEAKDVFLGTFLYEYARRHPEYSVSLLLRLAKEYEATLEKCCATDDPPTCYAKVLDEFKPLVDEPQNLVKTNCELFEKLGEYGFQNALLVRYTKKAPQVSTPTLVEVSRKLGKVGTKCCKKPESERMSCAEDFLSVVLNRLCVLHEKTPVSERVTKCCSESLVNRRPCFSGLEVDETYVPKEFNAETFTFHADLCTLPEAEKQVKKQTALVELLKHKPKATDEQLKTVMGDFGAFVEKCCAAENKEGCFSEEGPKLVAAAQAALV

calculated percent binding [1]: 98.7%
calculated percent binding [2]: 98.6%
calculated percent binding [3]: 11.4%
calculated percent binding [4]: 98%
calculated percent binding [5]: 5.9%
calculated percent binding [6]: 98.8%
calculated percent binding [7]: 16.9%
calculated percent binding [8]: 98.5%
N [9]: 0.5
N [10]: 0.83
N [11]: 0.68
N [12]: 0.59 and 0.56
N (binding stoichiometry, protein per dalbavancin) [13]: < 1
N (binding stoichiometry, protein per dalbavancin) [14]: < 1
N (binding stoichiometry, protein per dalbavancin) [15]: < 1
N (binding stoichiometry, protein per dalbavancin) [16]: < 1
calculated percent binding [17]: 26.2%
calculated percent binding [18]: 68.2%
N [19]: 0.35 and 0.37
calculated percent binding [20]: 98.8%
calculated percent binding [21]: 73%
Substance: dalbavancin (peptide)

calculated percent binding [1]: 98%
calculated percent binding [6]: 98.3%
calculated percent binding [17]: 6%
calculated percent binding [18]: 9.1%
calculated percent binding [20]: 98.3%
calculated percent binding [21]: 9.6%
Substance: teicoplanin (peptide)
